Results on five molecules are retold here after paper PMC9482650, “Quantitative fragmentomics allow affinity mapping of interactomes” (Nature Communications, 2022).

Some targets named below: FRMPD2_1, Q68DX3; Inadl_3, Q8NI35; DLG4_2, P78352; LIMK2, P53671; IL16_1, Q14005; NHERF4_2, Q86UT5; LAP2, Q96RT1; LNX1_3, Q8TBB1; NHERF4_4, Q86UT5.
Common to all, as to assay: holdup assay
Parameters in all cases: key: below the threshold = too weak to quantify, mostly under pKd 3.1 to 4

Another experiment has as its target T1, NHERF3_3, Q5T2W1.
T1 sequence (Q5T2W1 238-333, limits assumed, looked up): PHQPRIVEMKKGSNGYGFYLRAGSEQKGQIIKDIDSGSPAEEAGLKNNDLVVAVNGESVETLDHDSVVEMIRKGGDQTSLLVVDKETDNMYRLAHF

Another experiment concerns the target T2, APBA1_2, Q02410.
T2 sequence (Q02410 742-832, limits assumed, looked up): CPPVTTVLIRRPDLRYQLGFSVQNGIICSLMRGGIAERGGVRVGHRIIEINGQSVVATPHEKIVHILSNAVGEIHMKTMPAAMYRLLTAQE

A further experiment has as its target T3, PDZD2_2, O15018.
T3 sequence (O15018 329-429, limits assumed, looked up): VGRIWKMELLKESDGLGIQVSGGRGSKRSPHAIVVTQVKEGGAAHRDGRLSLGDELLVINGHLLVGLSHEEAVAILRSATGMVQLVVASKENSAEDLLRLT

The next experiment concerns the target T4, DFNB31_2, Q9P202.
T4 sequence (Q9P202 274-371, limits assumed, looked up): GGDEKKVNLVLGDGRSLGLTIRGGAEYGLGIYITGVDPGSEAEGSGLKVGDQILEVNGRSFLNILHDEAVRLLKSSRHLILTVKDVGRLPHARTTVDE

The target of another experiment is T5, SHANK1, Q9Y566.
T5 sequence (Q9Y566 658-767, limits assumed, looked up): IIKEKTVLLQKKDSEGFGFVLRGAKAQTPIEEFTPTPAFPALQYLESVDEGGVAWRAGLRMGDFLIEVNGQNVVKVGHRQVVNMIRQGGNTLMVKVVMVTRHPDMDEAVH

The target in another experiment is T6, MPP7, Q5T2T1.
T6 sequence (Q5T2T1 134-230, limits assumed, looked up): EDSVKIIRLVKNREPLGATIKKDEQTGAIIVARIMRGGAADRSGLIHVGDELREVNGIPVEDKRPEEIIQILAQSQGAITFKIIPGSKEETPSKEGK

In a further experiment the target is T7, LNX2_3, Q8N448.
T7 sequence (Q8N448 463-564, limits assumed, looked up): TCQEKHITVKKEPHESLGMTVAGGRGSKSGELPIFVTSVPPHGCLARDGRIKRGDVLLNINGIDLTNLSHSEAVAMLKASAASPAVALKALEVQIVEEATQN

For a further experiment, the target named is T8, NHERF3_4, Q5T2W1.
T8 sequence (Q5T2W1 373-468, limits assumed, looked up): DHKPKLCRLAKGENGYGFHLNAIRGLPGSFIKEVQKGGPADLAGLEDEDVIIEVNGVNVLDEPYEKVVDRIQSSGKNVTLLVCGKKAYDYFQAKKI

The target of the next experiment is T9, FRMPD1, Q5SYB0.
T9 sequence (Q5SYB0 52-145, limits assumed, looked up): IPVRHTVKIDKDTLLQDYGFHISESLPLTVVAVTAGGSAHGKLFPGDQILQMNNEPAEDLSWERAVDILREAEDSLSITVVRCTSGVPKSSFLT

In another experiment the target is T10, APBA2_2, Q99767.
T10 sequence (Q99767 654-744, limits assumed, looked up): T2 sequence (Q02410 742-832, limits assumed, looked up) with R10K, R15K, P59A, H65Q, I66A, A70S, Y84F, A89G

For the next experiment, the target named is T11, TX1BP3, O14907.
T11 sequence (O14907 10-122, limits assumed, looked up): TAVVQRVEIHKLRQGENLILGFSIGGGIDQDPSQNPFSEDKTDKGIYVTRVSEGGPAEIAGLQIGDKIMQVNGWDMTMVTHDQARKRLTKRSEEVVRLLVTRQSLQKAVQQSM

The target of a further experiment is T12, MPP6, Q9NZW5.
T12 sequence (Q9NZW5 125-219, limits assumed, looked up): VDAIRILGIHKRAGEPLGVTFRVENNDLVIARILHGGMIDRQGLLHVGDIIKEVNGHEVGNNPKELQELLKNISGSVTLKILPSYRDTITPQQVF

Another experiment has as its target T13, CARD11, Q9BXL7.
T13 sequence (Q9BXL7 662-765, limits assumed, looked up): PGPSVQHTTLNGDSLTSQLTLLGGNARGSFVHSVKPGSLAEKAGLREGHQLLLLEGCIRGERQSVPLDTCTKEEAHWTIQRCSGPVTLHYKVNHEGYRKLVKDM

A further experiment deals with T14, MPDZ_10, O75970.
T14 sequence (O75970 1624-1722, limits assumed, looked up): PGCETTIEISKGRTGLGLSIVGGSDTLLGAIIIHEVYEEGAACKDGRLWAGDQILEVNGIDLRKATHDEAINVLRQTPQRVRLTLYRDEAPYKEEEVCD

Setting [1] is: plain residues with an end cap or a label only (N-terminal biotin on a linker: ttds).
The mark [2] stands for this setting: plain residues with an end cap or a label only (N-terminal biotin on a linker: ado-ado).
Where [3] appears, read: plain residues with an end cap or a label only (N-terminal biotin on a linker: ahx).

Residue numbers refer to the chain shown, from its start.

Sequence of LNX1_3, Q8TBB1 (Q8TBB1 500-596): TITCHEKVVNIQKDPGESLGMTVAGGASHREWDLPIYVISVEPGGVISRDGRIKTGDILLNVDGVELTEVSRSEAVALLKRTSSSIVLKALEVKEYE
Sequence of NHERF4_4, Q86UT5 (Q86UT5 464-550): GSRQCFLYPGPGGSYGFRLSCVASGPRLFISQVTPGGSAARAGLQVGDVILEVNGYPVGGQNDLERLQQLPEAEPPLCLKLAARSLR
Sequence of LIMK2, P53671 (P53671 143-248): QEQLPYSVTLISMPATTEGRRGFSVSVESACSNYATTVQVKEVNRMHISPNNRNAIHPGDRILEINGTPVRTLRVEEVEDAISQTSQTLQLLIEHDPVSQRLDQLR
Sequence of Inadl_3, Q8NI35 (Q8NI35 359-469): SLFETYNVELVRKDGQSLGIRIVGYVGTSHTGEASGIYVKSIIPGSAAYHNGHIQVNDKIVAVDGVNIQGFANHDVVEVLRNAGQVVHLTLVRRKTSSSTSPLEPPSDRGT
Sequence of NHERF4_2, Q86UT5 (Q86UT5 220-308): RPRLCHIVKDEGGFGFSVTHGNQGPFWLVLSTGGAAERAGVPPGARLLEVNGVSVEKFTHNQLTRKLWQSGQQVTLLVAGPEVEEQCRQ
Sequence of LAP2, Q96RT1 (Q96RT1 other isoform, or with tags, fused parts or gaps): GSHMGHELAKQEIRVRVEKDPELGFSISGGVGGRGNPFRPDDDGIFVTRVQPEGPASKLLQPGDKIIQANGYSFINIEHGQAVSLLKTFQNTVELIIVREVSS
Sequence of FRMPD2_1, Q68DX3 (Q68DX3 770-861): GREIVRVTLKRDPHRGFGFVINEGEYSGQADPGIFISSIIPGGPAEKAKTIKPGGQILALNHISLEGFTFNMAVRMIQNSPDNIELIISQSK
Sequence of DLG4_2, P78352 (P78352 155-259): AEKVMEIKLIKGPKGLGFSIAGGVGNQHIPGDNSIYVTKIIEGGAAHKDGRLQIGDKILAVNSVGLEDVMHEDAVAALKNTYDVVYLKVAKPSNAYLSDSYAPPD
Sequence of IL16_1, Q14005 (Q14005 210-306): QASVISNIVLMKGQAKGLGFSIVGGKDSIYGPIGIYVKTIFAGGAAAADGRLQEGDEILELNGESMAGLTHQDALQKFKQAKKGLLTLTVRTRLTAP

B1: ABRAXAS2, Q15018 (peptide)
chain: DPRNTQTSQI
B1: the pKd entry is “below the threshold” with FRMPD2_1, Q68DX3 (setting [1]); “below the threshold” with NHERF3_3, Q5T2W1 (setting [1]); 3.71 in the experiment with APBA1_2, Q02410 (setting [1]); “below the threshold” with Inadl_3, Q8NI35 (setting [1]); 3.55 with DLG4_2, P78352 (setting [1]); “below the threshold” with LIMK2, P53671 (setting [1]). For the same molecule, the pKd with IL16_1, Q14005 (setting [1]) was 3.59; in the experiment with NHERF4_2, Q86UT5 (setting [1]), “below the threshold”; with PDZD2_2, O15018 (setting [1]), 4.44; with DFNB31_2, Q9P202 (setting [1]), 3.62; with SHANK1, Q9Y566 (setting [1]), “below the threshold”; in the experiment with LAP2, Q96RT1 (setting [1]), 3.53. Further, the pKd result with MPP7, Q5T2T1 (setting [1]) is “below the threshold”; with LNX2_3, Q8N448 (setting [1]), “below the threshold”; with NHERF3_4, Q5T2W1 (setting [1]) it was “below the threshold”; with FRMPD1, Q5SYB0 (setting [1]), “below the threshold”; with APBA2_2, Q99767 (setting [1]), “below the threshold”; with TX1BP3, O14907 (setting [1]) it was 3.71. The negative logarithm of the Kd (pKd) result with LNX1_3, Q8TBB1 (setting [1]) was “below the threshold”; with NHERF4_4, Q86UT5 (setting [1]), “below the threshold”; with MPP6, Q9NZW5 (setting [1]) it was “below the threshold”; with CARD11, Q9BXL7 (setting [1]), “below the threshold”; with MPDZ_10, O75970 (setting [1]), “below the threshold”.

B2: SLC23A1, Q9UHI7 (peptide)
chain: TETASVCTKV
For the molecule B2, the pKd with FRMPD2_1, Q68DX3 (setting [2]) was 3.76; with NHERF3_3, Q5T2W1 (setting [2]) it was 3.7; with APBA1_2, Q02410 (setting [2]) it was 4.64; in the experiment with Inadl_3, Q8NI35 (setting [2]) it was “below the threshold”; in the experiment with DLG4_2, P78352 (setting [2]), 4.15; with LIMK2, P53671 (setting [2]), “below the threshold”. Moreover, the pKd result with IL16_1, Q14005 (setting [2]) is “below the threshold”; in the experiment with NHERF4_2, Q86UT5 (setting [2]), “below the threshold”; in the experiment with PDZD2_2, O15018 (setting [2]), 4.12; with DFNB31_2, Q9P202 (setting [2]) it was “below the threshold”; with SHANK1, Q9Y566 (setting [2]), 4.42; with LAP2, Q96RT1 (setting [2]), 3.74. The pKd result in the experiment with MPP7, Q5T2T1 (setting [2]) is “below the threshold”; with LNX2_3, Q8N448 (setting [2]) it was “below the threshold”; in the experiment with NHERF3_4, Q5T2W1 (setting [2]), 3.7; with FRMPD1, Q5SYB0 (setting [2]), “below the threshold”; with APBA2_2, Q99767 (setting [2]) it was “below the threshold”; with TX1BP3, O14907 (setting [2]), 3.76. The pKd is 3.5 in the experiment with LNX1_3, Q8TBB1 (setting [2]); 3.89 with NHERF4_4, Q86UT5 (setting [2]); 3.87 in the experiment with MPP6, Q9NZW5 (setting [2]); “below the threshold” with CARD11, Q9BXL7 (setting [2]); 3.73 with MPDZ_10, O75970 (setting [2]).

B3: AGMAT, Q9BSE5 (peptide)
chain: LCALPKVTTV
B3: the pKd result with FRMPD2_1, Q68DX3 (setting [1]) is “below the threshold”; in the experiment with NHERF3_3, Q5T2W1 (setting [1]), “below the threshold”; with APBA1_2, Q02410 (setting [1]), 3.86; in the experiment with Inadl_3, Q8NI35 (setting [1]), 3.54; in the experiment with DLG4_2, P78352 (setting [1]) it was 5.29; in the experiment with LIMK2, P53671 (setting [1]), “below the threshold”. The pKd with IL16_1, Q14005 (setting [1]) is 4.06; with NHERF4_2, Q86UT5 (setting [1]), “below the threshold”; with PDZD2_2, O15018 (setting [1]), 4.44; with DFNB31_2, Q9P202 (setting [1]), 3.77; with SHANK1, Q9Y566 (setting [1]), “below the threshold”; with LAP2, Q96RT1 (setting [1]), 3.61. The pKd entry with MPP7, Q5T2T1 (setting [1]) was “below the threshold”; with LNX2_3, Q8N448 (setting [1]), “below the threshold”; with NHERF3_4, Q5T2W1 (setting [1]), 3.51; with FRMPD1, Q5SYB0 (setting [1]) it was “below the threshold”; with APBA2_2, Q99767 (setting [1]) it was “below the threshold”; with TX1BP3, O14907 (setting [1]), 4.07. For the same molecule, the pKd in the experiment with LNX1_3, Q8TBB1 (setting [1]) is 3.61; with NHERF4_4, Q86UT5 (setting [1]) it was “below the threshold”; with MPP6, Q9NZW5 (setting [1]) it was 3.54; with CARD11, Q9BXL7 (setting [1]), “below the threshold”; with MPDZ_10, O75970 (setting [1]) it was 4.14.

B4: TMEM215, Q68D42 (peptide)
chain: QGRWDHETIV
B4: the pKd entry with FRMPD2_1, Q68DX3 (setting [3]) is “below the threshold”; with NHERF3_3, Q5T2W1 (setting [3]) it was “below the threshold”; with APBA1_2, Q02410 (setting [3]), 3.9; with Inadl_3, Q8NI35 (setting [3]) it was 4.42; with DLG4_2, P78352 (setting [3]), 4.66; with LIMK2, P53671 (setting [3]), “below the threshold”. In addition, the pKd with IL16_1, Q14005 (setting [3]) was 4.4; in the experiment with NHERF4_2, Q86UT5 (setting [3]) it was “below the threshold”; with PDZD2_2, O15018 (setting [3]), 4.69; with DFNB31_2, Q9P202 (setting [3]), “below the threshold”; in the experiment with SHANK1, Q9Y566 (setting [3]), 3.57; with LAP2, Q96RT1 (setting [3]) it was 4.09. In addition, the pKd in the experiment with MPP7, Q5T2T1 (setting [3]) is 3.63; in the experiment with LNX2_3, Q8N448 (setting [3]) it was “below the threshold”; with NHERF3_4, Q5T2W1 (setting [3]), 3.52; with FRMPD1, Q5SYB0 (setting [3]) it was “below the threshold”; in the experiment with APBA2_2, Q99767 (setting [3]), “below the threshold”; with TX1BP3, O14907 (setting [3]) it was 4.31. Further, the negative-log Kd (pKd) entry with LNX1_3, Q8TBB1 (setting [3]) was “below the threshold”; with NHERF4_4, Q86UT5 (setting [3]), “below the threshold”; with MPP6, Q9NZW5 (setting [3]), “below the threshold”; with CARD11, Q9BXL7 (setting [3]) it was “below the threshold”; with MPDZ_10, O75970 (setting [3]), “below the threshold”.

B5: HPV51-E6, P26554 (peptide)
chain: RTRQRNETQV
Turning to B5, the pKd entry is “below the threshold” with FRMPD2_1, Q68DX3 (setting [1]); “below the threshold” with NHERF3_3, Q5T2W1 (setting [1]); 3.56 in the experiment with APBA1_2, Q02410 (setting [1]); “below the threshold” with Inadl_3, Q8NI35 (setting [1]); 4.99 with DLG4_2, P78352 (setting [1]); “below the threshold” with LIMK2, P53671 (setting [1]). The pKd result with IL16_1, Q14005 (setting [1]) is “below the threshold”; in the experiment with NHERF4_2, Q86UT5 (setting [1]) it was “below the threshold”; in the experiment with PDZD2_2, O15018 (setting [1]) it was 3.58; in the experiment with DFNB31_2, Q9P202 (setting [1]), “below the threshold”; with SHANK1, Q9Y566 (setting [1]) it was “below the threshold”; with LAP2, Q96RT1 (setting [1]) it was 3.69. Besides, the pKd entry was “below the threshold” in the experiment with MPP7, Q5T2T1 (setting [1]); “below the threshold” in the experiment with LNX2_3, Q8N448 (setting [1]); “below the threshold” with NHERF3_4, Q5T2W1 (setting [1]); “below the threshold” with FRMPD1, Q5SYB0 (setting [1]); “below the threshold” in the experiment with APBA2_2, Q99767 (setting [1]); 4.13 with TX1BP3, O14907 (setting [1]). Besides, the pKd result is given as “below the threshold” in the experiment with LNX1_3, Q8TBB1 (setting [1]); “below the threshold” with NHERF4_4, Q86UT5 (setting [1]); “below the threshold” with MPP6, Q9NZW5 (setting [1]); “below the threshold” with CARD11, Q9BXL7 (setting [1]); “below the threshold” with MPDZ_10, O75970 (setting [1]).
